This note sets out measurements from patent US20220064329.

For the data set, the target named is mAb0077(OA).
Chain of mAb0077(OA) (chain, as listed by the source, chain 1 of 3): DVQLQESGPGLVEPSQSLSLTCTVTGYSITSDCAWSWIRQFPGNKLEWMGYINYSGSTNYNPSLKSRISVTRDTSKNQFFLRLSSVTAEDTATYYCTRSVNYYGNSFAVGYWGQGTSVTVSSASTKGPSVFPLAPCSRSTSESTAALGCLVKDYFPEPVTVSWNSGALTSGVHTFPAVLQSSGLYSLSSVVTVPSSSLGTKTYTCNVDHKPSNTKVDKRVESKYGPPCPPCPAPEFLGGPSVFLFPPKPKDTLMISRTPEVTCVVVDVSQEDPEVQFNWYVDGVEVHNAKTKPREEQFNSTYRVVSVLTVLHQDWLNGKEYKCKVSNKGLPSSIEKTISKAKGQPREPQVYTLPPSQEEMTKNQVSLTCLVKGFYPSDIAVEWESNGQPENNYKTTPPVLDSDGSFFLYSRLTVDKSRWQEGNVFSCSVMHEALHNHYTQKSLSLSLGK
Chain of mAb0077(OA) (chain, as listed by the source, chain 2 of 3): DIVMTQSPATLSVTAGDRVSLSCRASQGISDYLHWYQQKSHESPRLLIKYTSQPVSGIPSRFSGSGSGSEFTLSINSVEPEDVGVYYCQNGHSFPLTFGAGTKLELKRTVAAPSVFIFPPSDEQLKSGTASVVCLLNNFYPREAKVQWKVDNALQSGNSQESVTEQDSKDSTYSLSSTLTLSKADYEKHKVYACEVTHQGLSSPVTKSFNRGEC
Chain of mAb0077(OA) (chain, as listed by the source, chain 3 of 3): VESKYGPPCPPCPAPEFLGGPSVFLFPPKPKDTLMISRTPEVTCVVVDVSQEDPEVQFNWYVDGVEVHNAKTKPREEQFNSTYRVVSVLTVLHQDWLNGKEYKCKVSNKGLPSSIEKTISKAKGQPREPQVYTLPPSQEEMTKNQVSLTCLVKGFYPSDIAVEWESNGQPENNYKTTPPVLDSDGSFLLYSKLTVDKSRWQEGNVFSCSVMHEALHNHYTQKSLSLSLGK

B1: recombinant human activated Factor VII (FVIIa) (protein)
chain 1: ANAFLEELRPGSLERECKEEQCSFEEAREIFKDAERTKLFWISYSDGDQCASSPCQNGGSCKDQLQSYICFCLPAFEGRNCETHKDDQLICVNENGGCEQYCSDHTGTKRSCRCHEGYSLLADGVSCTPTVEYPCGKIPILEKRNASKPQGR
chain 2: IVGGKVCPKGECPWQVLLLVNGAQLCGGTLINTIWVVSAAHCFDKIKNWRNLIAVLGEHDLSEHDGDEQSRRVAQVIIPSTYVPGTTNHDIALLRLHQPVVLTDHVVPLCLPERTFSERTLAFVRFSLVSGWGQLLDRGATALELMVLNVPRLMTQDCLQQSRKVGDSPNITEYMFCAGYSDGSKDSCKGDSGGPHATHYRGTWYLTGIVSWGQGCATVGHFGVYTRVSQYIEWLQKLMRSEPRPGVLLRAPFP
Regarding B1, the Km of FX activation by FVIIa/PS:PC with 200 nM antibody is 0.089 µM, the Km of FX activation by TF-FVIIa with 200 nM antibody turned out to be 0.0039 µM and the kcat of FX activation by FVIIa/PS:PC with 200 nM antibody was determined as 0.00026 s⁻¹.
